Laboratory results reported in US20090291504A1.

What was measured:
[1] = biological target: Cre fragments alpha5 + beta1 (Casanova et al. 2003) (bacteriophage P1?) (UniProt P06956+P06956); assay: cell_activity; conditions: HEK293 GFP reporter
[2] = system: Cre fragment β1 (reported in Casanova et al., 2003)
[3] = biological target: cCre (C-terminal half of Cre fused at its N-terminus to the C-peptide leucine zipper) (bacteriophage P1) (UniProt P06956); assay: cell-based or functional assay
[4] = biological target: nlcCre (cCre with an extra SV40 large T antigen NLS) (Simian Virus 40; bacteriophage P1) (UniProt P06956); assay: cell-based or functional assay
[5] = biological target: T1, C-terminal Cre fragment identical to that in cCre, without leucine zipper peptide, P06956
T1 chain: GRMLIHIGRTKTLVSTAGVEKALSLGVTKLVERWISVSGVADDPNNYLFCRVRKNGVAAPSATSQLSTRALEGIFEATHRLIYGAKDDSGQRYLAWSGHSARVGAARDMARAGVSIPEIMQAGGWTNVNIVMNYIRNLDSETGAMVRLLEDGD

ATAACTTCGTATAATGTATGCTATACGAAGTTAT (double strand) [loxP]
Cre recombinase activity relative to intact Cre [1]: < 2%

Cre fragment α5 (reported in Casanova et al., 2003)
Cre activity recovered from fragments lacking protein interaction motifs (tissue culture) [2]: less than 2% Cre activity was recovered

nCre (N-terminal half of Cre with an N-terminal SV40 large T antigen NLS, fused at its C-terminus to the N-peptide leucine zipper) (from UniProt P06956 1-190) (enzyme)
recombinase activity of intact Cre molecule reconstituted (GFP/mCherry reporter, flow cytometry, co-transfected HEK293 cells) [3]: 12.1% | Cre activity recovered (GFP/mCherry reporter, flow cytometry, co-transfected HEK293 cells) [4]: 27.2%

B1: N-terminal Cre fragment identical to that in nCre, without leucine zipper peptide (protein)
chain: MSNLLTVHQNLPALPVDATSDEVRKNLMDMFRDRQAFSEHTWKMLLSVCRSWAAWCKLNNRKWFPAEPEDVRDYLLYLQARGLAVKTIQQHLGQLNMLHRRSGLPRPSDSNAVSLVMRRIRKENVDAGERAKQALAFERTDFDQVRSLMENSDRCQDIRNLAFLGIAYNTLLRIAEIARIRVKDISRTDG
Cre activity generated by co-expression of fragments without interaction motifs (tissue culture) [5]: less than 0.5% of Cre activity
